Assay results: patent publication US12723100 (CSPC MEGALITH BIOPHARMACEUTICAL, dated 2026)
Residue numbers refer to the chain shown, from its start.

B1: N4_mAb 3 (antibody, human IgG1, V domains shown)
VH: EVQLQQSGAELVKPGASVKLSCTVSGFNIKDTYMHWVKQRPEQGLEWIGRIDPANGNTKYDPKFQGKATIIADKASNTAYLQLSSLTSEDAAVYYCAHYYGSSYFAMDCWGQGTSVTVSS
VL: DIVMTQSHKFMSTSVGDRVSITCKASQDVSTAVAWYQQKPGQSPKLLIYWASTRHTGVPDRFTGSGSGTDYTLTISSVQTEDLALYYCQQHYSTPLTFGAGTKLELK
notes: Tested as chimera (human IgG1/kappa constants); not shown: human IgG1 constant region (Uniprot P01857); human Kappa light chain constant region (UniProt P01834)
B2: N4_mAb 4 (antibody, human IgG1, V domains shown)
VH: DVQLQESGPDLVKPSQSLSLTCTVTGYSITSAYNWHWIRQFPGNKLEWMGYIHYSGRTNYNPSLKSRISITRDTSKNQFFLQLNSLTTEDTATYYCARWITTATGWYLDVWGAGTTVTVSS
VL: not shown
notes: as for B1
B3: N4_mAb 5 (antibody, human IgG1, V domains shown)
VH: EVQLQQSGPDLVKPGASVKISCKASGYSFTGHYMHWVKQSHGKSLEWIGRVNPNNGGSSYNQKFKDKAILTVDKSSTTAYMELRSLTSEDSAVYYCARDPLGGSYGFAYWGQGTLVTVSA
VL: DIVLTQSPASLAVSLGQRATISCRASQSVTTSSYSYMHWYQQKPGQPPKLLIKYASNLESGVPARFSGSGSGTDFTLNIHPVEEEDTATYYCQHSWEIPYTFGGGTKLEMK
notes: as for B1
B4: N4_mAb 2 (antibody, human IgG1, V domains shown)
VH: QVQLKQSGPNLVQPSQSLSITCTVSGFSLTTYGAHWVRQSPGKGLEWLGVIWRGGSTDYNAAFMSRLSITKDNSKSQVFFKMNSLQADDTAIYYCAKIGYDGYAMDNWGQGTSVTVSS
VL: DFQVTQSPASLSASVGETVTITCRTSENIHNYLAWYQQKQGKSPQLLVYNAKTLADGVPSRFSGSGSGTQYSLKINSLQPEDFGTYYCQHFWSSPWTFGGGTKLEIK
notes: as for B1
B5: N4_mAb 1 (antibody, human IgG1, V domains shown)
VH: QVQLKQSGPGLVQPSQSLSITCTVSGFSLTNYGVNWVRQPPGKGLEWLGVIWSGGSTDYNAAFISRLSISKDISKSQVFFKMNSLQADDTAKYYCAREGYDGYAMDYWGQGTSVTVSS
VL: DIQMTQSPASLSVSVGETVTITCRASENIFSSLAWYQQKQGKSPQLLVYGATNLADGVPSRFSGSGSGTQYSLKINSLQSEDFGTYWCQHFWGNPWTFGGGTKLEIK
notes: Tested as chimera (murine variable regions, human IgG1/kappa constants); not shown: human IgG1 constant region (Uniprot P01857); human Kappa light chain constant region (UniProt P01834)
B6: N4_mAb 6 (antibody, human IgG1, V domains shown)
VH: QVQLQQSGPELVKPGASVRISCKASGYTFTTYYIHWVKQRPGQGLEWIGWIYPGNVNTKYTENFKDKATLTADKSSSTAYMQLSSLTSEDSAVYFCARGLYYFDFWGQGTTLTVSS
VL: SIVMTQTPKFLLVSAGDRVTITCKASQSVNNDVAWYQQKPGQSPKLLIYYASNRDTGVPDRFTGSGFGTDFTFTISSVQAEDLAVYFCQQDYSSPYTFGGGTKLEIK
notes: as for B5
B7: N4_mAb 8 (antibody, human IgG1, V domains shown)
VH: B6 VH with E10V, T31S, T61N, K65R, A79S, L100I, F105Y
VL: B6 VL with S1I, Q38E, F67Y, S77T, Q89H, Y96F, G100S
notes: as for B5
B8: N4_mAb 7 (antibody, human IgG1, V domains shown)
VH: QVQLQQSGPELVKPGASVKMSCKASGYTFTTYYIHWVKQRPGQGLEWIGWIYPGNAGIKSNEKFKGKTTLTADKSSSTAYMLLSSLTSEDSAIYFCARGVYFFDYWGQGTTLTVSS
VL: B6 VL with A34S, Y36F, D55Y, T63S, F67Y, S76T, S77T
notes: as for B5

target: T1, full-length human Nectin-4 on cells (human, UniProt Q96NY8 32-510); test: flow cytometry, CHO-Nectin-4 cells
T1 construct: the cell is named under assay; also called CHO-Nectin-4 cells; Nectin-4-CHO
T1 sequence: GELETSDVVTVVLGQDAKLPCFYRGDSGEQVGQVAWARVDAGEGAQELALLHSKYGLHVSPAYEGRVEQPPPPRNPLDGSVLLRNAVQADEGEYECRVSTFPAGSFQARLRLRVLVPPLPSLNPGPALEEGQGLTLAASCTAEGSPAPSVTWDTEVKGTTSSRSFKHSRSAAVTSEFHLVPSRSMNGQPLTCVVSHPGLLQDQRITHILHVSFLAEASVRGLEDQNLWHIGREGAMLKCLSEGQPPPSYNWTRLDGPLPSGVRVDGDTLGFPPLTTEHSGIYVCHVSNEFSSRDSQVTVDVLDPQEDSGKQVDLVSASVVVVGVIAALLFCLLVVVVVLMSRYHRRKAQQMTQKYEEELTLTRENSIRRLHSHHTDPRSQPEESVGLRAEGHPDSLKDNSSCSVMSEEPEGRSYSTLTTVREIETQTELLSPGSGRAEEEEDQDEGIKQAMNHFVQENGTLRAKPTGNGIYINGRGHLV
Experimental: (§1) The binding specificity of the disclosed anti-Nectin-4 antibodies was also assessed by FACS. Briefly, CHO-Nectin-4 cells (vs. parental CHO cells) or endogenous cell lines expressing Nectin-4 (T-47D) were incubated with dilutions of purified recombinant antibodies. Cells were washed, and specific antibody binding was detected with Alexa 647 labeled goat anti-mouse IgG antibody. Flow cytometric analysis was performed on a flow cytometry instrument (Intellicyte, IQue plus, Sartorius).
(§2) N4_mAb 1 to N4_mAb 8 antibodies bind to CHO-Nectin-4 cells and SKBR3 cells by FACS.

Binder	EC50 [nM]
B1	0.75
B2	0.57
B3	0.38
B4	0.64
B5	0.29
B6	0.12
B7	0.23
B8	0.18

target: T2, human recombinant Nectin-4 protein (extracellular domain) (human, UniProt Q96NY8 32-349); test: ELISA, recombinant human Nectin-4 coated on plate
T2 construct: also called recombinant Nectin-4 (extracellular domain); human Nectin-4 recombinant protein
T2 sequence: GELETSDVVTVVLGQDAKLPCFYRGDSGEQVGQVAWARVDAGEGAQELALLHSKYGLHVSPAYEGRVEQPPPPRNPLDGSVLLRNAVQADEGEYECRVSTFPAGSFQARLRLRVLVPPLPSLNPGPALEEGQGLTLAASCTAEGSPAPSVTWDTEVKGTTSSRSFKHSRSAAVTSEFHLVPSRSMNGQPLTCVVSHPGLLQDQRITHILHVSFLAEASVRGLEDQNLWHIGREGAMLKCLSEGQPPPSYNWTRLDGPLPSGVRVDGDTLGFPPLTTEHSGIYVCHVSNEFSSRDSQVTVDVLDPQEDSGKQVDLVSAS
Experimental: The binding specificity of the disclosed anti-Nectin-4 antibodies was assessed by ELISA. Briefly, human recombinant Nectin-4 protein was directly coated to ELISA plates. Purified antibodies were then added to the plates followed by detection by goat-anti-mouse IgG-HRP. After addition of ABTS substrate, ELISA plates were read using an ELISA plate reader (Bioteck). The controls depicted in FIG. 2: PC1 refers to a reference antibody (known to be a Nectin-4 specific recombinant antibody, made by Novarock Biotherapeutics, lot no: 03042020KD); the negative control is a human IgG1 (Dendritics, catalog no: DDXCH01P-100, lot no: DDXCH01-028).
The ELISA binding EC50 values of the eight anti-Nectin-4 antibodies, N4_mAb 1 to N4_mAb 8 and the positive control antibody were listed in Table 3 below.

Binder	EC50 [nM]
B1	1.51
B2	1.12
B3	0.13
B4	0.12
B5	0.14
B6	0.03
B7	0.14
B8	0.04

target: T1, full-length human Nectin-4 on cells; test: flow cytometry, SKBR3 cells (endogenous Nectin-4)
Experimental: as §1, §2

Binder	EC50 [nM]
B1	45
B2	1.8
B3	0.52
B4	1.8
B5	0.24
B6	0.04
B7	0.05
B8	0.05

target: T3, mouse Nectin-4 (mouse, UniProt Q8R007 31-508); test: flow cytometry, transfected 293T cells; ++ EC50 between 5 nM and 25 nM
T3 construct: Transiently expressed on 293T cells; also called murine Nectin-4
T3 sequence: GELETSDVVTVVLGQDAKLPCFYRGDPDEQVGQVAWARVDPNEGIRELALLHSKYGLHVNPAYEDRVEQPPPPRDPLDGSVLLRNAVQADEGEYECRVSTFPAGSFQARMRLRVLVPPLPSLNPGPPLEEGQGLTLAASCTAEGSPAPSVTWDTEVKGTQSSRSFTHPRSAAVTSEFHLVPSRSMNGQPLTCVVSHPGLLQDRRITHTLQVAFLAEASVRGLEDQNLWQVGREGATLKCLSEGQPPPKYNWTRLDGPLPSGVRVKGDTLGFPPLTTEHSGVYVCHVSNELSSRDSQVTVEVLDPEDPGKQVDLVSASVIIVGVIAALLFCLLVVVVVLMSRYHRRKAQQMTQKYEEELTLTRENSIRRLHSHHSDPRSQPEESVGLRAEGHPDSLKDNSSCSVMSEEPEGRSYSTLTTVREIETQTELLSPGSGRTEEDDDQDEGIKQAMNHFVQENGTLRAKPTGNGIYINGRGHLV
Experimental: CDNAs encoding Nectin-4 protein from cynomolgus monkey (SEQ ID NO: 62), rat (SEQ ID NO: 63), or mouse (SEQ ID NO: 64) were separately cloned into a pcDNA3.1-based mammalian expression plasmid. The respective plasmids were transfected to human 293T cells in a similar way described in Example 6. The binding EC50 of disclosed human Nectin-4 antibodies to species-specific Nectin-4 transiently expressed on 293T cell surface was measured by flow cytometry.

Binder	EC50 [nM]
B4	5 to 25
B6	5 to 25
B7	5 to 25
B8	5 to 25

target: T4, recombinant human Nectin4-His protein (human, UniProt Q96NY8 32-349); test: SPR (BIAcore 3000), antibody captured by anti-human IgG, Nectin4-His as analyte
T4 construct: Analyte of the SPR assay; May be the same protein as m12; also called human Nectin-4 ECD; not shown: His tag
T4 sequence: T2 sequence
Experimental: The binding kinetics of the disclosed anti-Nectin-4-specific antibodies to recombinant human Nectin-4 was determined by Surface plasmon resonance (SPR) using BIAcore 3000 system. Briefly, CM5 chip was immobilized via amine coupling chemistry with anti-human IgG antibody (GE, Cat No BR-1000-12, lot 10283568) following the application wizards on Flow cell 4. Flow cell 3 remained unmodified to serve as a reference cell for subtraction of systematic instrument noise and drift. Run Fc4-3 detection with double blank (Fc3 and blank analyte buffer). Antibody samples were diluted to 1 ug/mL in HBS-EP and injected at a flow rate of 10 ul/min for 1 minute. Analyte recombinant human Nectin4-His protein was diluted from 10 to 0.156 nM ([…], 5 points to 0 nM in HBS-EP buffer) and injected at 50 uL/minute for 2 minutes, followed by 6 minutes dissociation. All the analyses were performed with double blanks, Fc3 and blank analyte buffer, to reduce the background. Data were analyzed using BIAevaluation software (version 4.1.1) by 1:1 binding with mass transfer model with global fit to determine apparent binding kinetics.

Binder	Kd [nM]
B1	17.2
B2	1.26
B3	1.58
B4	0.884
B5	1.25
B6	0.392
B7	0.375
B8	0.39
